Assay [1] relates to SOX2. As to the kind of experiment: SOX2 expression by western blotting / flow cytometry. The note with it: basal-type cells. The assay is classed as cell-based, human. The procedure: Whole cell lysates were extracted using RIPA buffer (Thermo Scientific) supplemented with 10 μL/mL Halt™ Protease Inhibitor Cocktail Kit (Life Technologies) and 30 μL/mL Halt™ Phosphatase Inhibitor Cocktail Kit (Life Technologies). The protein concentrations were determined using a Pierce™ BCA Protein Assay Kit (Life Technologies), and the protein were separated on NuPAGE® 4-12% Bis-Tris Gel (Life Technologies) according to the manufacturer's protocol. […]
For extracellular staining, cells (1×10^6/100 μL stain buffer) were incubated with PE-Vio770-conjugated anti-human CD133 (293C3; Miltenyi Biotec, Auburn, USA) or PE-conjugated anti-human CD24 antibody (cat #, 560991; BD Biosciences) for 30 min at 4° C. in dark. […] Data were acquired on a BD FACSCalibur flow cytometer (BD Biosciences) using BD CellQuest Pro software (BD Biosciences) and analyzed with FlowJo software v10.1 (Tree Star, Ashland, USA).
On the technique in general: Immunoblotting shows a protein as a band on a membrane.

Assay [2] deals with YAP1. Put plainly: YAP1 expression by western blotting. The note with it: basal-type cells. The assay is classed as cell-based, human. As for the experimental part: Whole cell lysates were extracted using RIPA buffer (Thermo Scientific) supplemented with 10 μL/mL Halt™ Protease Inhibitor Cocktail Kit (Life Technologies) and 30 μL/mL Halt™ Phosphatase Inhibitor Cocktail Kit (Life Technologies). The protein concentrations were determined using a Pierce™ BCA Protein Assay Kit (Life Technologies), and the protein were separated on NuPAGE® 4-12% Bis-Tris Gel (Life Technologies) according to the manufacturer's protocol. COX2 (D5H5), NANOG (D73G4), OCT4 (D7O5Z), CD133 (A3G6K), Snail (C15D3), ZEB1 (D80D3), Vimentin (D21H3), CDH2 (D4R1H), CDH1 (24E10), p-EGFR (D7A5), EGFR (D38B1), p-AKT (D9E), AKT (cat #, 9272), p-ERK (D13.14.4E), ERK (137F5), p-YAP1 (D9W2I), p-Src (cat #, 2101), Src (36D10), DNMT1 (D63A6), DNMT3A (D23G1), and DNMT3B (D7O7O) antibodies were obtained from Cell Signaling Technology (Danvers, Mass., USA), except for SOX2 (EPR3131; Abcam, Cambridge, USA), YAP1 (ab52771; Abcam), CD24 (cat #, AF5247-SP; R&D Systems, Minneapolis USA) and β-actin (A2228; Sigma-Aldrich). Secondary horseradish peroxidase (HRP)-conjugated antibodies were obtained from Cell Signaling Technology, and chemiluminescent detection of HRP-labeled antibodies was performed using Amersham ECL Prime Western Blotting Detection Reagent (GE Healthcare, Piscataway, USA). As loading control, β-actin was used.

B1: EGF: Recombinant human epidermal growth factor (EGF) (protein, UniProt P01133 23-1207, looked up)
Pro-epidermal growth factor: PQHWSCPEGTLAGNGNSTCVGPAPFLIFSHGNSIFRIDTEGTNYEQLVVDAGVSVIMDFHYNEKRIYWVDLERQLLQRVFLNGSRQERVCNIEKNVSGMAINWINEEVIWSNQQEGIITVTDMKGNNSHILLSALKYPANVAVDPVERFIFWSSEVAGSLYRADLDGVGVKALLETSEKITAVSLDVLDKRLFWIQYNREGSNSLICSCDYDGGSVHISKHPTQHNLFAMSLFGDRIFYSTWKMKTIWIANKHTGKDMVRINLHSSFVPLGELKVVHPLAQPKAEDDTWEPEQKLCKLRKGNCSSTVCGQDLQSHLCMCAEGYALSRDRKYCEDVNECAFWNHGCTLGCKNTPGSYYCTCPVGFVLLPDGKRCHQLVSCPRNVSECSHDCVLTSEGPLCFCPEGSVLERDGKTCSGCSSPDNGGCSQLCVPLSPVSWECDCFPGYDLQLDEKSCAASGPQPFLLFANSQDIRHMHFDGTDYGTLLSQQMGMVYALDHDPVENKIYFAHTALKWIERANMDGSQRERLIEEGVDVPEGLAVDWIGRRFYWTDRGKSLIGRSDLNGKRSKIITKENISQPRGIAVHPMAKRLFWTDTGINPRIESSSLQGLGRLVIASSDLIWPSGITIDFLTDKLYWCDAKQSVIEMANLDGSKRRRLTQNDVGHPFAVAVFEDYVWFSDWAMPSVMRVNKRTGKDRVRLQGSMLKPSSLVVVHPLAKPGADPCLYQNGGCEHICKKRLGTAWCSCREGFMKASDGKTCLALDGHQLLAGGEVDLKNQVTPLDILSKTRVSEDNITESQHMLVAEIMVSDQDDCAPVGCSMYARCISEGEDATCQCLKGFAGDGKLCSDIDECEMGVPVCPPASSKCINTEGGYVCRCSEGYQGDGIHCLDIDECQLGEHSCGENASCTNTEGGYTCMCAGRLSEPGLICPDSTPPPHLREDDHHYSVRNSDSECPLSHDGYCLHDGVCMYIEALDKYACNCVVGYIGERCQYRDLKWWELRHAGHGQQQKVIVVAVCVVVLVMLLLLSLWGAHYYRTQKLLSKNPKNPYEESSRDVRSRRPADTEDGMSSCPQPWFVVIKEHQDLKNGGQPVAGEDGQAADGSMQPTSWRQEPQLCGMGTEQGCWIPVSSDKGSCPQVMERSFHMPSYGTQTLEGGVEKPHSLLSANPLWQQRALDPPHQMELTQ
modifications: Pro-epidermal growth factor
As for B1, the SOX2 expression entry in assay [1] was “increased”. For the same molecule, the YAP1 expression result in assay [2] was “increased”.

For the origin of these results see patent US10888549B2, “Pharmaceutical agents targeting cancer stem cells” (THE JOHNS HOPKINS UNIVERSITY, priority 2016, dated 2021).
